According to patent US20180064827:

Columns and labels:
Assay in all cases: cell_activity
ZFN 60289 (synthetic) = settings: pair with 60287, K562
ZFN 60137 (synthetic) = settings: pair with 60334, K562
ZFN 60043 (synthetic) = settings: pair with 60045, K562
ZFN 60392 (synthetic) = settings: pair with 65022, Hepa1-6
ZFN 64989 (synthetic) = settings: pair with 65021, Hepa1-6
ZFN 64992 (synthetic) = settings: pair with 65021, Hepa1-6
ZFN 60413 (synthetic) = settings: pair with 64944, Hepa1-6
ZFN 64951 (synthetic) = settings: pair with 64946, Hepa1-6
ZFN 64952 (synthetic) = settings: pair with 64944, Hepa1-6
ZFN 60416 (synthetic) = settings: pair with 64866, Hepa1-6
ZFN 64848 (synthetic) = settings: pair with 64866, Hepa1-6
ZFN 64859 (synthetic) = settings: pair with 64869, Hepa1-6
ZFN 60133 (synthetic) = settings: pair with 60134, K562
ZFN 60254 (synthetic) = settings: pair with 60259, K562; N7a version 60256 gave 74.32
ZFN 58780 (synthetic) = settings: pair with 65094, Hepa1-6
ZFN 65085 (synthetic) = settings: pair with 65098, Hepa1-6
ZFN 65086 (synthetic) = settings: pair with 65094, Hepa1-6
ZFN 60417 (synthetic) = settings: pair with 64859, Hepa1-6
ZFN 64866 (synthetic) = settings: pair with 64859, Hepa1-6
ZFN 64869 (synthetic) = settings: pair with 64859, Hepa1-6
ZFN 60750 (synthetic) = settings: pair with 67495, HepG2, 40 ug/mL
ZFN 25277 (synthetic) = settings: pair with 25264, K562, 200 ng
ZFN 60501 (synthetic) = settings: pair with 67458, HepG2, 40 ug/mL
ZFN 64066 (synthetic) = settings: pair with 60502, HepG2, 40 ug/mL
ZFN 67451 (synthetic) = settings: pair with 60502, HepG2, 40 ug/mL
ZFN 60259 (synthetic) = settings: pair with 60254, K562
ZFN 60412 (synthetic) = settings: pair with 64951, Hepa1-6
ZFN 64944 (synthetic) = settings: pair with 64952, Hepa1-6
ZFN 64946 (synthetic) = settings: pair with 64951, Hepa1-6
ZFN 64947 (synthetic) = settings: pair with 64952, Hepa1-6
ZFN 60423 (synthetic) = settings: pair with 64793, Hepa1-6
ZFN 64842 (synthetic) = settings: pair with 64793, Hepa1-6
ZFN 64844 (synthetic) = settings: pair with 64793, Hepa1-6
ZFN 60461 (synthetic) = settings: pair with 64971, Hepa1-6
ZFN 64982 (synthetic) = settings: pair with 64971, Hepa1-6; finger linker variant 64972 gave 89.0
ZFN 64983 (synthetic) = settings: pair with 64971, Hepa1-6
ZFN 69922 (synthetic) = settings: pair with 69916, 0.1 ug mRNA, MK2
ZFN 69925 (synthetic) = settings: pair with 69916, 0.1 ug mRNA, MK2
ZFN 69926 (synthetic) = settings: pair with 69915, 0.1 ug mRNA, MK2
ZFN 69928 (synthetic) = settings: pair with 69916, 0.1 ug mRNA, MK2
ZFN 69929 (synthetic) = settings: pair with 69920, 0.1 ug mRNA, MK2
ZFN 60334 (synthetic) = settings: pair with 60137, K562
ZFN 25264 (synthetic) = settings: pair with 25277, K562, 200 ng
ZFN 69903 (synthetic) = settings: pair with 69912, 0.1 ug mRNA, MK2
ZFN 69908 (synthetic) = settings: pair with 69912, 0.1 ug mRNA, MK2
ZFN 69909 (synthetic) = settings: pair with 69912, 0.1 ug mRNA, MK2
ZFN 69915 (synthetic) = settings: pair with 69922, 0.1 ug mRNA, MK2
ZFN 69916 (synthetic) = settings: pair with 69922, 0.1 ug mRNA, MK2
ZFN 69918 (synthetic) = settings: pair with 69922, 0.1 ug mRNA, MK2
ZFN 69919 (synthetic) = settings: pair with 69922, 0.1 ug mRNA, MK2
ZFN 69920 (synthetic) = settings: pair with 69922, 0.1 ug mRNA, MK2
ZFN 60460 (synthetic) = settings: pair with 64982, Hepa1-6
ZFN 64969 (synthetic) = settings: pair with 64982, Hepa1-6
ZFN 64971 (synthetic) = settings: pair with 64982, Hepa1-6
ZFN 69912 (synthetic) = settings: pair with 69909, 0.1 ug mRNA, MK2
ZFN 69913 (synthetic) = settings: pair with 69909, 0.1 ug mRNA, MK2
ZFN 58781 (synthetic) = settings: pair with 65086, Hepa1-6
ZFN 65094 (synthetic) = settings: pair with 65086, Hepa1-6
ZFN 65095 (synthetic) = settings: pair with 65086, Hepa1-6
ZFN 65098 (synthetic) = settings: pair with 65086, Hepa1-6
ZFN 60045 (synthetic) = settings: pair with 60043, K562
ZFN 60309 (synthetic) = settings: pair with 60308, K562
ZFN 60393 (synthetic) = settings: pair with 64989, Hepa1-6
ZFN 65021 (synthetic) = settings: pair with 64989, Hepa1-6
ZFN 65022 (synthetic) = settings: pair with 64989, Hepa1-6
ZFN 60422 (synthetic) = settings: pair with 64842, Hepa1-6
ZFN 64791 (synthetic) = settings: pair with 64842, Hepa1-6
ZFN 64793 (synthetic) = settings: pair with 64842, Hepa1-6
ZFN 64802 (synthetic) = settings: pair with 64842, Hepa1-6
ZFN 64347 (synthetic) = settings: pair with 60751, HepG2, 40 ug/mL
ZFN 60308 (synthetic) = settings: pair with 60309, K562
ZFN 60751 (synthetic) = settings: pair with 64347, HepG2, 40 ug/mL
ZFN 67493 (synthetic) = settings: pair with 60750, HepG2, 40 ug/mL
ZFN 67495 (synthetic) = settings: pair with 60750, HepG2, 40 ug/mL
ZFN 60134 (synthetic) = settings: pair with 60133, K562

## AGAGAAGTGGATCAGTCTCTGCCTCAAC (double strand) [human PCSK9 60289 site]
ZFN 60289 (synthetic)
  activity: 73.1 % indel

## AGATGGGGGTCTTACCGGGGGGCTGGTA (double strand) [human PCSK9 60137 site]
ZFN 60137 (synthetic)
  activity: 67.9 % indel

## AGGATCCGTGGAGGTTGCCTGGCACCTA (double strand) [human PCSK9 60043 site]
ZFN 60043 (synthetic)
  activity: 65.4 % indel

## AGGATGGAGATTATGAAGAGCTGATGCT (double strand) [mouse PCSK9 site G left]
ZFN 60392 (synthetic)
  activity: 69.2 % indel
ZFN 64989 (synthetic)
  activity: 83.3 % indel
ZFN 64992 (synthetic)
  activity: 79.8 % indel

## CACATGGGGCAACTTCAGGGCCTACAGA (double strand) [mouse PCSK9 site E right]
ZFN 60413 (synthetic)
  activity: 41.4 % indel
ZFN 64951 (synthetic)
  activity: 51.3 % indel
ZFN 64952 (synthetic)
  activity: 49.1 % indel

## CAGAGCATCCCATGGAACCTGGAGCGAA (double strand) [mouse PCSK9 site B left]
ZFN 60416 (synthetic)
  activity: 35.7 % indel
ZFN 64848 (synthetic)
  activity: 73.6 % indel
ZFN 64859 (synthetic)
  activity: 82.4 % indel

## CCGCCCGGTACCGTGGAGGGGTAATCCG (double strand) [human PCSK9 60133 site]
ZFN 60133 (synthetic)
  activity: 72.6 % indel

## CGCTGCCGGCAACTTCCGGGACGATGCC (double strand) [human PCSK9 60254 site]
ZFN 60254 (synthetic)
  activity: 75.7 % indel

## CTGGAGGCTGCCAGGAACCTACATTGTG (double strand) [mouse PCSK9 site J left]
ZFN 58780 (synthetic)
  activity: 69.6 % indel
ZFN 65085 (synthetic)
  activity: 73.5 % indel
ZFN 65086 (synthetic)
  activity: 77.8 % indel

## CTGGTGCCATGCTGGGATAATTCGCTCC (double strand) [mouse PCSK9 site B right]
ZFN 60417 (synthetic)
  activity: 53 % indel
ZFN 64866 (synthetic)
  activity: 79 % indel
ZFN 64869 (synthetic)
  activity: 82.4 % indel

## CTTACTGGAAGGCACTTGGCATCTCCCC (double strand) [human TTR 60750 site]
ZFN 60750 (synthetic)
  activity: 61.8 % indel

## GAAAGGGACTGAAGCTGCTGGGGCCATG (double strand) [SERPINA1 25277 site]
ZFN 25277 (synthetic)
  activity: 40.9 % indel

## GAGCAGACGATGAGAAGCCATCCTGCCA (double strand) [human TTR 60501 site]
ZFN 60501 (synthetic)
  activity: 47.6 % indel
ZFN 64066 (synthetic)
  activity: 37.3 % indel
ZFN 67451 (synthetic)
  activity: 36.6 % indel

## GAGGCTGGGGAGTAGAGGCAGGCATCGT (double strand) [human PCSK9 60259 site]
ZFN 60259 (synthetic)
  activity: 75.7 % indel

## GCTAAGTGCATGGCTGTCTGGTTCTGTA (double strand) [mouse PCSK9 site E left]
ZFN 60412 (synthetic)
  activity: 28.6 % indel
ZFN 64944 (synthetic)
  activity: 49.1 % indel
ZFN 64946 (synthetic)
  activity: 51.3 % indel
ZFN 64947 (synthetic)
  activity: 42 % indel

## GGCACGCTGTTGAAGTCGGTGATGGTGA (double strand) [mouse PCSK9 site A right]
ZFN 60423 (synthetic)
  activity: 35.8 % indel
ZFN 64842 (synthetic)
  activity: 44.9 % indel
ZFN 64844 (synthetic)
  activity: 42.9 % indel

## GGGGTGGTGACTCACCGGCCACGTGGGC (double strand) [mouse PCSK9 site F right]
ZFN 60461 (synthetic)
  activity: 85.8 % indel
ZFN 64982 (synthetic)
  activity: 95.9 % indel
ZFN 64983 (synthetic)
  activity: 95.2 % indel

## GGGGTGGTGACTTACCAGCCACGTGGGC (double strand) [M. mulatta PCSK9 exon 7 right]
ZFN 69922 (synthetic)
  activity: 81.4 % indel
ZFN 69925 (synthetic)
  activity: 77 % indel
ZFN 69926 (synthetic)
  activity: 37 % indel
ZFN 69928 (synthetic)
  activity: 69.2 % indel
ZFN 69929 (synthetic)
  activity: 43.3 % indel

## GGTACCGGGCGGATGAATACCAGCCCCC (double strand) [human PCSK9 60334 site]
ZFN 60334 (synthetic)
  activity: 67.9 % indel

## GTCGATGGTCAGCACAGCCTTATGCACG (double strand) [SERPINA1 25264 site]
ZFN 25264 (synthetic)
  activity: 40.9 % indel

## GTGGAGGCTGCCCGGCACCTACGTGGTG (double strand) [M. mulatta PCSK9 exon 2 left]
ZFN 69903 (synthetic)
  activity: 33.7 % indel
ZFN 69908 (synthetic)
  activity: 42.5 % indel
ZFN 69909 (synthetic)
  activity: 58.7 % indel

## GTGGGACATCGCAGGCTGCTGCCCACGT (double strand) [M. mulatta PCSK9 exon 7 left]
ZFN 69915 (synthetic)
  activity: 78 % indel
ZFN 69916 (synthetic)
  activity: 81.4 % indel
ZFN 69918 (synthetic)
  activity: 71.2 % indel
ZFN 69919 (synthetic)
  activity: 76.1 % indel
ZFN 69920 (synthetic)
  activity: 72.1 % indel

## GTGGGACCTCACAGGCTGCTGCCCACGT (double strand) [mouse PCSK9 site F left]
ZFN 60460 (synthetic)
  activity: 53.8 % indel
ZFN 64969 (synthetic)
  activity: 86.1 % indel
ZFN 64971 (synthetic)
  activity: 95.9 % indel

## GTGGTGCTGAAGGAGGAGACCCACCGCT (double strand) [M. mulatta PCSK9 exon 2 right]
ZFN 69912 (synthetic)
  activity: 58.7 % indel
ZFN 69913 (synthetic)
  activity: 53.4 % indel

## GTGGTGCTGATGGAGGAGACCCAGAGGC (double strand) [mouse PCSK9 site J right]
ZFN 58781 (synthetic)
  activity: 62.3 % indel
ZFN 65094 (synthetic)
  activity: 77.8 % indel
ZFN 65095 (synthetic)
  activity: 76.7 % indel
ZFN 65098 (synthetic)
  activity: 77.2 % indel

## TACGTGGTGGTGCTGAAGGAGGAGACCC (double strand) [human PCSK9 60045 site]
ZFN 60045 (synthetic)
  activity: 65.4 % indel

## TATCCCCGGCGGGCAGCCTGGGCCTGCA (double strand) [human PCSK9 60309 site]
ZFN 60309 (synthetic)
  activity: 71.8 % indel

## TCCTCCTGGGACGGGAGGGCGAGCATCA (double strand) [mouse PCSK9 site G right]
ZFN 60393 (synthetic)
  activity: 60.9 % indel
ZFN 65021 (synthetic)
  activity: 83.3 % indel
ZFN 65022 (synthetic)
  activity: 76.3 % indel

## TCGGGAGATTGAGGGCAGGGTCACCATC (double strand) [mouse PCSK9 site A left]
ZFN 60422 (synthetic)
  activity: 35 % indel
ZFN 64791 (synthetic)
  activity: 41.8 % indel
ZFN 64793 (synthetic)
  activity: 44.9 % indel
ZFN 64802 (synthetic)
  activity: 43 % indel

## TCTTACTGGAAGGCACTTGGCATCTCCC (double strand) [human TTR 64347 site]
ZFN 64347 (synthetic)
  activity: 63.5 % indel

## TGCAGGCGGCGGGCAGTGCGCTCTGACT (double strand) [human PCSK9 60308 site]
ZFN 60308 (synthetic)
  activity: 71.8 % indel

## TGCATGCTCATGGAATGGGGAGATGCCA (double strand) [human TTR exon 3 right]
ZFN 60751 (synthetic)
  activity: 63.5 % indel
ZFN 67493 (synthetic)
  activity: 59.2 % indel
ZFN 67495 (synthetic)
  activity: 61.8 % indel

## TTACCGGGGGGCTGGTATTCATCCGCCC (double strand) [human PCSK9 60134 site]
ZFN 60134 (synthetic)
  activity: 72.6 % indel
